B1: ATGL (PNPLA2, patatin-like phospholipase domain-containing protein 2), human, full length / perilipin-5, mouse (mPlin5) (parent)
chain 1: MFPREKTWNISFAGCGFLGVYYVGVASCLREHAPFLVANATHIYGASAGALTATALVTGVCLGEAGAKFIEVSKEARKRFLGPLHPSFNLVKIIRSFLLKVLPADSHEHASGRLGISLTRVSDGENVIISHFNSKDELIQANVCSGFIPVYCGLIPPSLQGVRYVDGGISDNLPLYELKNTITVSPFSGESDICPQDSSTNIHELRVTNTSIQFNLRNLYRLSKALFPPEPLVLREMCKQGYRDGLRFLQRNGLLNRPNPLLALPPARPHGPEDKDQAVESAQAEDYSQLPGEDHILEHLPARLNEALLEACVEPTDLLTTLSNMLPVRLATAMMVPYTLPLESALSFTIRLLEWLPDVPEDIRWMKEQTGSICQYLVMRAKRKLGRHLPSRLPEQVELRRVQSLPSVPLSCAAYREALPGWMRNNLSLGDALAKWEECQRQLLLGLFCTNVAFPPEALRMRAPADPAPAPADPASPQHQLAGPAPLLSTPAPEARPVIGALGL
chain 2: MDQRGEDTTLAPHSRMSGDQTAQDPGSSLGELDQQNVVNRVVALPLVKATCTAVSSAYNSAKDRHPLLGSACRLAEHCVCSVTTCALDHAQPLLEHLQPQLATVNDLACRGLDKLEEKLPFLQQPSDMVVTSAKDTVAKSVTGMVDLAQRGRRWSGELRRSMSQAMDMVLGKSEKLVDRFLPMTEAELAVLAAEAEGPEVGTVEEQRQQQGYFVRLGSLSARLRHLAYEHSLGKLRQSKHRTQEMLAQLQETLELIQHMQRGASPSPTFHPPKTQELWGSWSPCLENGRSHSEVELETLALSRSLTLELQNAVDALAGCVRGLPPSAQAKVAEVQRSVDALQATFADAHCLGDVAPTALAEGRGSVARAHACVDEFLDLVLRAMPLPWLVGPFAPILVEQSEPLINLATCVDEVVGDPDPRWAHMDWPAQKRAWEAESADPGGQEAEPPRGQGKHTMMPELDF
B2: ATGL (PNPLA2, patatin-like phospholipase domain-containing protein 2), human, full length / G0S2 (G0/G1 switch protein 2), human (parent)
chain 1: B1 chain 1
chain 2: METVQELIPLAKEMMAQKRKGKMVKLYVLGSVLALFGVVLGLMETVCSPFTAARRLRDQEAAVAELQAALERQALQKQALQEKGKQQDTVLGGRALSNRQHAS

Variants of: B1
Test: LUMIER: Protein A-ATGL variant and firefly luciferase-partner co-expressed in HEK293T, lysates immunoprecipitated on IgG-coated plates, co-precipitated partner measured as luciferase luminescence
Conditions: with perilipin-5, mouse (mPlin5), transient co-transfection, IgG-coated LUMITRAC plates, 2 h at 4 °C, three PBS washes, Bright-Glo luciferase reagent, triplicates per assay, two …, parent: 0.15, not graded, scale: log2 fold change of co-immunoprecipitated luminescence relative to wild-type ATGL within each experiment

| screen value | Variant |
| --- | --- |
| -0.512 | chain 1 Q396A |
| 0.211 | chain 1 R95K |
| -0.404 | chain 1 R95L |
| 0.649 | chain 1 R113K |
| -0.305 | chain 1 R113L |
| -0.296 | chain 1 R163K |
| 0.105 | chain 1 R329E |
| -0.213 | chain 1 R351L |
| -0.249 | chain 1 S87A |
| -0.403 | chain 1 S87E |
| -0.363 | chain 1 S106K |
| -0.0252 | chain 1 S158A |
| -0.0461 | chain 1 S158E |
| 0.0372 | chain 1 T41A |
| -0.294 | chain 1 V127L |
| -0.912 | chain 1 V328A |
| 0.184 | chain 1 Y415A |

Same assay, conditions: with perilipin-5, mouse (mPlin5), transient co-transfection, IgG-coated LUMITRAC plates, 2 h at 4 °C, three PBS washes, Bright-Glo luciferase reagent, triplicates per assay, two …, parent: 0.46, not graded, scale: log2 fold change of co-immunoprecipitated luminescence relative to wild-type ATGL within each experiment

| screen value | Variant |
| --- | --- |
| -0.623 | chain 1 Q396A |
| -0.228 | chain 1 R95K |
| -0.391 | chain 1 R95L |
| 0.667 | chain 1 R113K |
| 0.191 | chain 1 R113L |
| 0.00396 | chain 1 R163K |
| -0.51 | chain 1 R329E |
| -0.456 | chain 1 R351L |
| -0.228 | chain 1 S87A |
| -0.318 | chain 1 S87E |
| -0.539 | chain 1 S106K |
| 0.0162 | chain 1 S158A |
| 0.172 | chain 1 S158E |
| 0.0895 | chain 1 T41A |
| -0.0973 | chain 1 V127L |
| -0.985 | chain 1 V328A |
| 0.247 | chain 1 Y415A |

Variants of: B2
Test: as above
Conditions: with G0S2 (G0/G1 switch protein 2), transient co-transfection, IgG-coated LUMITRAC plates, 2 h at 4 °C, three PBS washes, Bright-Glo luciferase reagent, triplicates per assay, two …, parent: 0.26, not graded, scale: log2 fold change of co-immunoprecipitated luminescence relative to wild-type ATGL within each experiment

| screen value | Variant |
| --- | --- |
| -0.113 | chain 1 A104E |
| 0.461 | chain 1 A434L |
| 0.72 | chain 1 A453E |
| -0.308 | chain 1 E125L |
| 0.00238 | chain 1 E314A |
| -0.233 | chain 1 E368A |
| -0.163 | chain 1 F35A |
| -0.0735 | chain 1 F35E |
| -0.115 | chain 1 F348E |
| -0.435 | chain 1 G16K |
| -2.12 | chain 1 G59L |
| 0.751 | chain 1 G66A |
| -0.176 | chain 1 G66L |
| -1.31 | chain 1 G153A |
| -1.68 | chain 1 G153K |
| -2.28 | chain 1 G189E |
| 0.353 | chain 1 H109E |
| -1.03 | chain 1 I70A |
| -1.77 | chain 1 I70K |
| 0.251 | chain 1 K92L |
| -0.535 | chain 1 K275A |

| screen value | Variant |
| --- | --- |
| -1.67 | chain 1 L62A |
| -1.38 | chain 1 L62K |
| -2.65 | chain 1 L102K |
| -0.413 | chain 1 L159A |
| -0.634 | chain 1 L178A |
| -0.622 | chain 1 L261E |
| -2.73 | chain 1 N39E |
| -1.96 | chain 1 N180L |
| -0.894 | chain 1 P86K |
| -0.0704 | chain 1 P103K |
| -2.18 | chain 1 P156K |
| -1.36 | chain 1 P258L |
| 0.0979 | chain 1 Q140A |
| 0.195 | chain 1 Q140K |
| -1.32 | chain 1 Q396A |
| 0.105 | chain 1 R95K |
| -0.0587 | chain 1 R95L |
| 0.927 | chain 1 R113K |
| -0.0286 | chain 1 R113L |
| 0.411 | chain 1 R163K |

Same assay, conditions: with G0S2 (G0/G1 switch protein 2), transient co-transfection, IgG-coated LUMITRAC plates, 2 h at 4 °C, three PBS washes, Bright-Glo luciferase reagent, triplicates per assay, two …, parent: 0.56, not graded, scale: log2 fold change of co-immunoprecipitated luminescence relative to wild-type ATGL within each experiment

| screen value | Variant |
| --- | --- |
| 0.0584 | chain 1 A104E |
| -0.0543 | chain 1 A434L |
| -0.082 | chain 1 A453E |
| -0.181 | chain 1 E125L |
| -0.218 | chain 1 E314A |
| -0.215 | chain 1 E368A |
| -0.133 | chain 1 F35A |
| 0.169 | chain 1 F35E |
| -0.287 | chain 1 F348E |
| -0.755 | chain 1 G16K |
| -2.22 | chain 1 G59L |
| 0.00762 | chain 1 G66A |
| -0.16 | chain 1 G66L |
| -1.25 | chain 1 G153A |
| -2.61 | chain 1 G153K |
| -2.66 | chain 1 G189E |
| 0.0835 | chain 1 H109E |
| -1.14 | chain 1 I70A |
| -2.22 | chain 1 I70K |
| -0.642 | chain 1 K92L |
| -0.748 | chain 1 K275A |

| screen value | Variant |
| --- | --- |
| -2.25 | chain 1 L62A |
| -1.99 | chain 1 L62K |
| -2.45 | chain 1 L102K |
| -0.671 | chain 1 L159A |
| 0.0997 | chain 1 L178A |
| -0.673 | chain 1 L261E |
| -2.67 | chain 1 N39E |
| -1.94 | chain 1 N180L |
| -0.783 | chain 1 P86K |
| 6.88e-05 | chain 1 P103K |
| -2.45 | chain 1 P156K |
| -1.64 | chain 1 P258L |
| 0.734 | chain 1 Q140A |
| -0.175 | chain 1 Q140K |
| -1.71 | chain 1 Q396A |
| 0.0501 | chain 1 R95K |
| -0.569 | chain 1 R95L |
| -0.0371 | chain 1 R113K |
| -0.429 | chain 1 R113L |
| 0.335 | chain 1 R163K |

From publication PMC10958042
